In patent publication US20200102374A1 (VIB VZW, published 2020):

B1: VHH-DS-Cav1-L66 (VHH)
VHH: QVQLQESGGGLVQPGGSLRLSCAASGFTLDYYYIGWFRQAPGKEREGVSCISSSHGSTYYADSVKGRFTISRDNAKNTVYLQMNSLKPEDTAVYYCATVAVAHFRGCGVDGMDYWGKGTQVTVSS
B2: VHH-DS-Cav1-4 (VHH)
VHH: QVQLQESGGGLVQPGGSLRLSCAASGFTLDYYYIGWFRQAPGKEREAVSCISGSSGSTYYPDSVKGRFTISRDNAKNTVYLQMNSLKPEDTAVYYCATIRSSSWGGCVHYGMDYWGKGTQVTVSS

How the values were obtained:
[1] = target: F protein of RSV B49 virus (respiratory syncytial virus B49); experiment: cell-based or functional assay
[2] = target: F protein of RSV A2 virus (respiratory syncytial virus A2, UniProt P03420 26-574); experiment: cell-based or functional assay
Sequence of F protein of RSV A2 virus (P03420 26-574): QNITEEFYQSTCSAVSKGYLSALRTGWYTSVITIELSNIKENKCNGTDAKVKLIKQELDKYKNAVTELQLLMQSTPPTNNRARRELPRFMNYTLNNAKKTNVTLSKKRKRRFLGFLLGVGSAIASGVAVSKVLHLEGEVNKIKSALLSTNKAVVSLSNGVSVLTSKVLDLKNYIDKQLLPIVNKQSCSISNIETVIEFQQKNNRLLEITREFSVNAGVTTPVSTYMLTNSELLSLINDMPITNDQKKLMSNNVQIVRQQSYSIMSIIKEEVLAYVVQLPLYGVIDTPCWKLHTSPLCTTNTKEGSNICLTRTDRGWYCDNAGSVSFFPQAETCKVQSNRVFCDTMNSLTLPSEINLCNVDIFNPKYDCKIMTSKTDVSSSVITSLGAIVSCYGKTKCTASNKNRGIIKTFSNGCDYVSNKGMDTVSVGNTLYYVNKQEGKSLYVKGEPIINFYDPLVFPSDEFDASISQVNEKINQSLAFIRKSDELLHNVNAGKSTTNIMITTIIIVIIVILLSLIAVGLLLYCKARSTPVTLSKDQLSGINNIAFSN

Binder | IC50 of neutralization of RSV B49 (plaque reduction on Vero cells) [1] | IC50 of in vitro neutralization of RSV A2 (plaque reduction on Vero cells) [2]
B1 | 0.032 nM | 0.032 nM
B2 | 0.015 nM | 0.021 nM
